Earlier results on one substance are cited in PMC6423427.

Broadly, the Kd is the constant that tells how readily two partners part at equilibrium.

The target in this data set is BiP (Homo sapiens) (UniProt P11021).
Chain of UniProt P11021 (P11021 19-654): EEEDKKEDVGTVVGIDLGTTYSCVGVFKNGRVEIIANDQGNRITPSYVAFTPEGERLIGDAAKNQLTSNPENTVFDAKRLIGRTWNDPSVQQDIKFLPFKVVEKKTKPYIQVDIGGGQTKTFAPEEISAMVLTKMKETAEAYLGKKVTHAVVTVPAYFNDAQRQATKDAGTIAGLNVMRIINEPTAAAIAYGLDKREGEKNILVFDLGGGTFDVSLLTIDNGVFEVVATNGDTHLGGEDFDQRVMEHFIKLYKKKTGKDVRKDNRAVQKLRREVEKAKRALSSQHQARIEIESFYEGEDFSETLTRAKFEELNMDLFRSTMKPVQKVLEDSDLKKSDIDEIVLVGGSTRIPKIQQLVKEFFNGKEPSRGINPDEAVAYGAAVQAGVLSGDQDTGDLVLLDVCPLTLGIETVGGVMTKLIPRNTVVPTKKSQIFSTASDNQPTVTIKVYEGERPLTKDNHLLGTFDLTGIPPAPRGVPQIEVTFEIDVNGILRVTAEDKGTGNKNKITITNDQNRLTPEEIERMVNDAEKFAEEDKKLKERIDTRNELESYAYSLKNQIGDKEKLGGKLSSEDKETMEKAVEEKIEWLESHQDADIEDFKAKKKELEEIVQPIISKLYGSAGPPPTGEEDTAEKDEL

Take IRE1 LD (from UniProt O75460): the Kd is 1500 nM.
